{
  "source": "the DeepSol protein solubility set",
  "data": [
    {"assay": "soluble on expression in E. coli; label from the status in PepcDB or PDB records", "values": [
      {"sequence": "MIRVACVGITVMDRIYYVEGLPTESGKYVARNYTEVGGGPAATAAVAAARLGAQVDFIGRVGDDDAGNSLLAELESWGVNTRYTKRYNQAKSSQSAIMVDTKGERIIINYPSPDLLPDAEWLEEIDFSQWDVVLADVRWHDGAKKAFTLARQAGVMTVLDGDITPQDISELVALSDHAAFSEPGLARLTGVKEMASALKQAQTLTNGHVYVTQGSAGCDWLENGGRQHQPAFKVDVVDTTGAGDVFHGALAVALATSGDLAESVRFASGVAALKCTRPGGRAGIPDCDQTRSFLSLFV", "soluble on expression in E. coli": "not soluble"},
      {"sequence": "MIRVKRLDHVQICIPFGAEDEARAFYTGVLGFQEIEKPESLKGNGGLWYKVGDIQLHIGAENRDGYNSKSHPAFEVEDVEAARRYLEEHGVATQDEKPIPGVKRFSFRDPFRNRIELLEKIM", "soluble on expression in E. coli": "not soluble"},
      {"sequence": "MIRYWKLLFSLAVASVLLVGCGTKEHETTQAAKEEQTADDQKPSSDAPSSKNPSPSKEAKEQTSTKKNEEEQRAAGGGQPAASQPTISLSYQDGNQTVTKTATLQTSNNQHFSLYVLEGWTLDAEEPGADVLLHGDAFARIRLLSEGETNYEQLAQEHAQAVDANAARQQTNGLPKPFADAVWYTAQADGVTVHVIASAQPTPMLLTVHAPSNEDVLGAVLAMAATLQKQ", "soluble on expression in E. coli": "not soluble"},
      {"sequence": "MISAFDIFKIGIGPSSSHTVGPMNAGKCFIDRLIDSGDLPRTTRITVDLYGSLSLTGKGHATDTAVIMGLAGNTPQDVNIDSIPAFIQEVARSSRLSVAGGAHVVDFPVADSIFFHAETLARHENGMRITAWNGQAPLLHKTYYSIGGGFIVEEERFGQSHDVEKSVPYDFHSASELLTLCERQGLSVSGLMMQNELALRSKEQIDAGFARIWQVMATGIERGMNTEGVLPGPLNVPRRAVALRRLLVSSDNLSRDPMNVIDWINMFALAVSEENAAGGRVVTAPTNGACGIIPAVLAYYDKFRRPVNANSIARYLLSAGAIGMLYKMNASISGAEVGCQGEVGVACSMAAAGLTELLGGSPAQVCIAAEIAMEHNLGLTCDPVAGQVQIPCIERNAINAVKAVNAARMALRRTSEPRVSLDKVIETMYETGKDMNDKYRETSRGGLAIKVVCG", "soluble on expression in E. coli": "not soluble"},
      {"sequence": "MISGPFLHFDPTVPLQTVMIGHPATSPLSLPSSSSSPTVADPSNIHCRVCERRYDGSQHFGIDICRACAAFFRRSVAVKKTFVCRRGTNKCELNTVSRKTTCQKCRWMRCLLVGLNVDAVVGRRSPDHVKTTSRDESVKKEDEESDTGSEGKSCEDMDVSHPIEQFQQQISFSVHRPIPTIGNPNIYTTRASLINKVLINYNEFTKSRLDVELSLKHMQQDSKVFGSTGIPIVPATREIISEIYQKQFGLLHIFLKNTFDEYAECDVQEQKRICAMFYPVLWEIESCYWTYRNMPVQPEYETLMMCTQTTYIDSKNVRYWLGNTTGLNESDIQAVEARLENLLTKARNLVLEPMHKLIIKEFEFITLLALNIWAPRNHRGCVSEDRAEQVRDALFDDLHYLYCDGLKIDKYSSRMGEMMCLHTEVQNADMSSTIKNILFSDLNAYLYSI", "soluble on expression in E. coli": "not soluble"},
      {"sequence": "MISKTSILLLGFACAAVGANYIESAIFKFDDSCEPLEEPRKPEVAKCYEPSTSLPKTLEEYRAMGYDWGEFVHDDKADQAPEGLDEVFTYPMVPFIGMSLLASKKF", "soluble on expression in E. coli": "not soluble"},
      {"sequence": "MISNRILQTTVDGLKAISRVDLCIVDADKNVAAKTFDNVSECLADAISFIDSPAESQAVNGFQFFKVEDEGNLEYIIMARGTSDDVYMVGKLAAFQIQNLLVAYKERFDKDNFIKNLLLDNLLRVDMYTRAEKLHIETDVKRVVYIIETKHEKDTSALETVRTLFANKTRDFITAVDEKSIILVKEVKGNESYDELDKTADVIIDMLNTEAMSAAHVAYGTIVNDIREVSRSYKEAKMALDVGKIFYSNKNVVAYNRLGIGRLIYQLPIPLCQMFIKEIFEGKAPDDFDDETLSTINKFFENSLNVSETSRQLYIHRNTLVYRLDKIQKITGLDLRVFDDAITFKIALMVVKYMKYMESKDTF", "soluble on expression in E. coli": "not soluble"},
      {"sequence": "MISPELVKEALKKKKVRSEEAFGLEYLRFNDDYKDIPRGTAIFKDFIIWGYPHIGRIFLLETGLREQFEAPFWVEEKVDGYNTRIFKYGDNYYALSRGGFICPFTTDRLPDLIDLRILDENPDLVICAEVAGPENPYIEESPPYVKEDVQLFVFDFMKKNEQGFLSQEEKMELIEKYNLPHVEILGRFTASEEGIKKIKEILKRFNEEGREGVVFKEDSERNKRAKYITSYANLMDIKTNAKNMLQLPPEYYTNRILRLVLFMYEEGLKTTEHLYEELGRAFIDGLFQAIEQFEKEHKVYKTFTCKFRKKENAIALLELLSKTSKHIQVKERRLEKEGDYWRLEFDKVFLNMTGLLGHLLSGGIVYD", "soluble on expression in E. coli": "soluble"},
      {"sequence": "MISPKKEITSSKYQKIAISVAQRIANGEYEVGEKLKSRTTIASTFNVSPETARKGLNILADLKILTLKHGSGAIVLSKERAIEFINQYESTHSIAVLKEKIRETINDQGKAMEKMAVLVNDFLMQSQSVSKQYPLAPYEIICNQDSEHFGKSIGVLNIWHQTGATIVAIEHAGQFIVSPGPYSVIEKGDHIYFVGDESVISRMKTFFNLRKGL", "soluble on expression in E. coli": "not soluble"},
      {"sequence": "MITAIVFDVDDTIYDQQAPYRIAMEKCFPDFDMSVMNQAYIRFRHYSDVGFPRVMAGEWTTEYFRFWRCKETLLEFGYREIDEAAGVHFQEVYEHELENITMLDEMRMTLDFLKSKNVPMGIITNGPTEHQLKKVRKLGLYDYIDAKRVIVSQATGFQKPEKEIFNLAAEQFDMNPQTTLYVGDSYDNDIMGAFNGGWHSMWFNHRGRQLKPGTKPVYDVAIDNFEQLFGAVKVLFDLPDNKFIFDVNDKKNPILQMGINNGLMMAAERLLESNMSIDKVVILLRLTKQQEKVLRLKYAR", "soluble on expression in E. coli": "not soluble"},
      {"sequence": "MITDEHIELFLAQAHRYGDAKLMLCSSGNLSWRIGEEALISGTGSWVPTLAKEKVSICNIASGTPTNGVKPSMESTFHLGVLRERPDVNVVLHFQSEYATAISCMKNKPTNFNVTAEIPCHVGSEIPVIPYYRPGSPELAKAVVEAMLKHNSVLLTNHGQVVCGKDFDQVYERATFFEMACRIIVQSGGDYSVLTPEEIEDLEIYVLGKKTK", "soluble on expression in E. coli": "soluble"},
      {"sequence": "MITEKRHELILTELSKQDFLTLQELIERTGCSASTIRRDLSKLQKFGKLKRVHGGATLNQSSALEPNLADKRSTNLREKQEIGRLAASQIENRDCVFLDAGSTTLEMIPYIKASDIIVVTNGLTHVEELLKHGIRTLIIGGEVKSTTFATVGASALETLRRYRFDKVFLGMNGIDLKYGLTTPDEQEAIIKHHAMQLGTQVYVLIDHDKYEKVYFAHVPLEEGVSIITSKKAQSLKQFHLFAGQYNFIGGTLLEHHHHHH", "soluble on expression in E. coli": "soluble"},
      {"sequence": "MITLIFPGFNNVHVSGMDIEEKIRKIEEEIQKTPYNKATAHHIGKLKAKISRLKEEALQRKTSSGKGRGFHIKKSGDSTVVLIGFPSVGKSTLLNELTSAESKVGDYQFTTLEIVPGVMEYRGAQIQIFDIPGIITGASRGRGRGREILSVARSADLIVIVLDVFNTDHMDIILRELRDVGIRPNETPPDVIVKRRKLGGVKLSATVELTHLDEKIIRSVLNEYGIHNADVLIRDDITVDQFIDVMEANRAYIPAITVINKIDLVDESYLEGLREKFPEALFISADRDINIDELREEIFNRLGLIRIYLKPQGKKADYDEPLIIREGSTVGDVCQKLHRDFVRKFRHARVWGSSVKFDGQKVGLEHVLNDEDVLRIIIKK", "soluble on expression in E. coli": "not soluble"},
      {"sequence": "MITMKISSRFSIAVHILSILKNNPSSLCTSDYMAESVNTNPVVIRKIMSYLKQAGFVYVNRGPGGAGLLKDLHEITLLDVYHAVNVVEEDKLFHIHEQPNPDCPIGANIQAVLEIILIQAQSAMEEVLRNITMGQLFETLQEKMNA", "soluble on expression in E. coli": "soluble"},
      {"sequence": "MITMPKLFIYHANQCNPKKCTSLKMAKMNKAILLKNPYKVPKNSLILNPYAEKALSPEDKEIVEKFGITALDCSWKEAELMFKKFKFKNQRSLPFLVACNPINYGKPCMLSTLEAFIAALYITNFKDEAWDLTSCFKWAETFIKVNYELLERYSNAKNSMEVVEIQQDFLRKLEHHHHHH", "soluble on expression in E. coli": "soluble"},
      {"sequence": "MITPDLESGVKVWHLVKNHDHGDQKEGDRGSKMVSEIYLTRLLATKGTLQKFVDDLFETLFSTVHRGSALPLAIKYMFDFLDEQADRHSIHDTDVRHTWKSNCLPLRFWVNVIKNPQFVFDIHKGSITDACLSVVAQTFMDSCSTSEHRLGKDSPSNKLLYAKDIPSYKNWVERYYADIAKLPAISDQDMNAYLAEQSRLHATEFNMLSALNEIYSYVSKYSEELIGALEQDEQARRQRLAYKVEHLINAMSIES", "soluble on expression in E. coli": "not soluble"},
      {"sequence": "MITRDFFLFLSKSGFLNKMARNWGSRVAAGKIIGGNDFNSSIPTIRQLNSQGLSVTVDHLGEFVNSAEVARERTEECIQTIATIADQELNSHVSLKMTSLGLDIDMDLVYENMTKILQTAEKHKIMVTIDMEDEVRCQKTLDIFKDFRKKYEHVSTVLQAYLYRTEKDIDDLDSLNPFLRLVKGAYKESEKVAFPEKSDVDENYKKIIRKQLLNGHYTAIATHDDKMIDFTKQLAKEHGIANDKFEFQMLYGMRSQTQLSLVKEGYNMRVYLPYGEDWYGYFMRRLAERPSNIAFAFKGMTKKLEHHHHHH", "soluble on expression in E. coli": "soluble"},
      {"sequence": "MITVSIVSHGQSTLVEQLLADLVRLDMSMVTEVLVTLNIPEDISSKPGDYPYPVRILRNTAARGFGANHNAAFRQAEGEWFCVMNPDIRLINNPFPILIEEGAYDSAGVIAPMVVTPSGMIEDSVRCFPVLTSLAAKLFGHGDGRYLFAAGDEAFAADWVAGMFMLFRTEDFRAVGGFDEGFFLYYEDVDICARLWKSGRSVLACPKASVIHDARRSSRRNLRYMKWHALSLIRYFWKHWGRLPQTPEQLEHHHHHH", "soluble on expression in E. coli": "soluble"},
      {"sequence": "MIVERVLYNIKDIDLEKLEVDFVDIEWYEVQKKILRKLSSNGIEVGIRNSNGEALKEGDVLWQEGNKVLVVRIPYCDCIVLKPQNMYEMGKTCYEMGNRHAPLFIDGDELMTPYDEPLMQALIKCGLSPYKKSCKLTTPLGGNLHGYSHSHSH", "soluble on expression in E. coli": "not soluble"},
      {"sequence": "MIVIFVHGWSVTHTNTYGELPQWLENQSKQGKLDIQVGNIYLGRYISFDDTVTVDDIARAFDQAVRDEIAAKVKDGQRFACITHSTGGPIVRKWMDLYFKNNLAKCPLSHLIMLAPANHGSALAQLGKSRLGRIKSFFEGIEPGKCVLDWLELGSDMSWQLNESWLDYDCTANGVYSFVLTGQKIDRQLYDAVNSYTGESGSDGVVRVAATNMNYSLLKLHQEGDNGESLVVAKMTRTQPMAFGVLPGLSHSGKNIGIIRSITMANAATHPTAIWVLRCLQVKSRDSYNKLVKELDNITKETQKNEHKEFVKTLVFTREYITNRYSMIIFRLIDDRGNHLIDYDLYLTAGPQYSEQALPAGFFVDRQRNLNNRGKLTYFLDYDIMEGGINTPKMQGNLGFRVKAYPESSEQALAYYRLLDFHSSLADIHKILHPNETVMVEIMLQRRVDKTVFRINNNLTPAKISGKPTGKKID", "soluble on expression in E. coli": "not soluble"},
      {"sequence": "MIVTLLGTGDSPGTPILNCHCRTCEDARRKGWERKRFSVMVQNNGKTVLIDTSPDLRRQLLDCGVEKVDAVIWTHCHFDHFGGFGEFYRVQNNVKVYSTPQIHEDIGHFMKFMSYKPVEVEAFENFTIAGMDFTLLPVNHPPVSAVGVKVEWKGYKVVVSGDTNVRIPEATLREMQNPDLLIVEALAPTGRFRKHMNAKEALELAKRLNAGKVVLTHLGHFFPPHHLAIKSYPVGEDYQSFSFGEGRLDEFFGDLEHHHHHH", "soluble on expression in E. coli": "not soluble"},
      {"sequence": "MIVVVNEQQVEVDEQTTIAALLDSLGFGDRGIAVALNFSVLPRSDWATKICELRKPVRLEVVTAVQGG", "soluble on expression in E. coli": "soluble"},
      {"sequence": "MIVYGLYKSPFGPITVAKNEKGFVMLDFCDCAERSSLDNDYFTDFFYKLDLYFEGKKVDLTEPVDFKPFNEFRIRVFKEVMRIKWGEVRTYKQVADAVKTSPRAVGTALSKNNVLLIIPCHRVIGEKSLGGYSRGVELKRKLLELEGIDVAKFIEK", "soluble on expression in E. coli": "soluble"}
    ]}
  ]
}
